The values that follow come from patent US20200009222A1, “[…] ACTIVE COMPLEXES” (HAMLET PHARMA AB, priority 2016, published 2020).

One series concerns SC-35. Kind of series: SC-35 phosphorylation, Western blot analysis and flow cytometry. In kind it is cell-based. A general note: A western blot detects proteins with antibodies after separation by electrophoresis.
In series [1] the test system is Protein kinase C (PKC) isoforms. In words: Kinex KAM-850 phospho-antibody array. It counts as cell-based, human. As to conditions: 1 hour, 21 uM. Here is the method:
The in vivo kinase activity assay was performed using Kinex™ KAM-850 Antibody Microarray Services (Kinexus, Canada). Untreated and HAMLET-treated samples were performed in duplicates. Raw quantification data and basic analyses for individual samples were provided. Reference data, consolidated data of over 200 samples was also provided as reference, confirming the validity of the assay performed. Targets with percent fold change over control>10 were significant. The targets were identified in the human profiling human activity-based phosphorylation network (Molecular Systems Biology 9:655).

Another series deals with histone H3. Kind of series: ProtoArray Human Protein Microarray interaction profiling. It counts as binding. As to conditions: screen of 8000 human proteins. Here is the method:
(§1) ProtoArray® Human Protein Microarray version 4.0 (Invitrogen) was performed as previously described^20, which consists of approximately 8,000 human proteins. AlexaFluor®568-labeled HAMLET was added to protein arrays at two concentrations (5 and 50 ng/μl) in duplicate, and the fluorescence was measured by using GenePix 6.0. Negative control array was incubated with buffer alone and scanned at a wavelength of 532 nm. […] The interactions were quantified as fold change (FCs) over the average negative control value.

The subject of a further series is PKC isoforms. Described as above. In kind it is binding. As to conditions: screen of 8000 human proteins. On the procedure:
as §1

In a further series the test system is bladder cancer. Particulars: prior clinical study; cited from earlier work.
In series [2] the test system is adherent lung carcinoma cells (A549). Kind of series: Live cell imaging of Alexa-Fluor labeled HAMLET uptake. Particulars: 35 μM, 1 hour. In kind it is cell-based, human. Here is the method: For uptake experiments lung carcinoma cells were treated with Alexa-488 or 568 labeled HAMLET, washed and visualized under confocal microscope live. Localization of HAMLET in lysosomes was detected by pre-labelling the cells with lysotracker (LysoTracker Green DND-26, Thermo Fisher). For peptide or peptide-oleate complexes uptake, lung carcinoma cells were treated with individual biotinylated peptide alone or mixed with sodium oleate. Cells were fixed (2% PFA, 10 min), permeabilized (0.25% Triton X-100) and blocked with FCS (10% in PBS). The biotinylated peptides were detected with Alexa-488 or 568 labeled streptavidin conjugate (1:200, 5% FCS/PBS, 1 hour). The accumulation of peptide or peptide oleate complexes in lysosomes was investigated by treatment of lung carcinoma cells with Alexa-568 labeled peptide (20%) or peptide-oleate complexes for 1 hour. Cells were counter stained with lysosomal marker, Lysotracker. Slides were examined using LSM 510 META or LSM 800 laser scanning confocal microscope (Carl Zeiss).
During live cell imaging of Alexa-Fluor labeled HAMLET (35 μM, 1 hour) and adherent lung carcinoma cells (A549), two distinct cellular staining patterns (FIG. 1a) were detected. […] Nuclear speckles reside in the inter-chromatin space of eukaryotic nuclei and serve as important nodes in the splicing of pre-mRNA and transport of spliced RNA. […]

The next series relates to MB49 bladder tumor. In words: Real-time in vivo fluorescence imaging and tissue uptake of labeled complex. As to conditions: tumor-bearing mice; intravesical; 24 hours.

Method for MB49 bladder tumor: HAMLET or peptides were labeled using VivoTag 680XL Protein Labeling Kit (Perkin Elmer). Mice were anaesthetized using Isofluorane and 100 ul solution of labeled HAMLET or peptide was instilled in bladders of tumor bearing or healthy control mice.
Hair was removed from the ventral sides of anesthetized mice. Mice were imaged at various time points using an IVIS Spectrum imaging system (Perkin Elmer). Signals from HAMLET or peptides were acquired at fluorescent settings with 680 nm excitation. For tissue specific uptake, Alexa-568 labeled peptide was instilled in bladders of tumor bearing or healthy control mice. Mice were sacrificed after 24 hours of treatment and bladder sections were imaged using Zeiss AX10 fluorescence microscope.
The retention of alpha-peptide oleate complexes by the tumor was visualized, by in vivo imaging in mice with palpable tumors. VivoTag 680XL labeled alpha1 peptide-oleate complexes were instilled intra-vesically on day 8 after the inoculation of MB49 cells and the fluorescence signal was monitored longitudinally, using the IVIS spectrum in vivo imaging system.
To verify that the alpha-peptides are retained by the bladder tumor, Alexa Fluor-568 labeled alpha1 peptide-oleate complexes were instilled into the bladders of tumor bearing mice (day 8, palpable tumors).
Method for SC-35: Cells were grown on 6-well plates (3×10^5/well, TPP) overnight. Cells treated with HAMLET were lysed with mammalian NP-40 lysis buffer supplemented with protease and phosphatase inhibitors (both from Roche Diagnostics). […] The anti-GAPDH (1:1,000, sc-25778, Santa Cruz) and anti-Histone H3 (ab1791, Abcam) were used as loading controls. Primary antibodies followed by HRP-conjugated secondary anti-rabbit or anti-mouse antibodies (1:4000, 5% NFDM, Cell Signaling) and visualized using ECL Plus detection reagent (GE Health Care). Band intensities were quantified using the ImageJ software 1.46r (NIH).

B1: HAMLET (protein)
chain: KQFTKCELSQLLKDIDGYGGIALPELICTMFHTSGYDTQAIVENNESTEYGLFQISNKLWCKSSQVPQSRNICDISCDKFLDDDITDDIMCAKKILDIKGIDYWLAHKALCTEKLEQWLCEKL
B1: the SC-35 phosphorylation entry with SC-35 is listed as “inhibited”. Further, the “PKC isoforms with inhibited phosphorylation” value in series [1] was 5/6. In addition, the “Affinity for histone H3 in proteomic screen” value in the series on histone H3 is “confirmed”. Besides, the “Binding to PKC isoforms in proteomic screen” value in the series with PKC isoforms is “identified as HAMLET targets”. Also, in the series on bladder cancer, the Toxic effects entry was “not detected” and the “Tumor response to intravesical instillations” value was “massive tumor cell exfoliation”. For the same molecule, in series [2], the “Population I cells (membrane blebbing, diffuse cytoplasmic staining, nuclear speckle accumulation)” value is listed as 51% and the “Population II cells (exclusively cytoplasmic, lysosomal uptake)” value amounted to 47%. In the series with MB49 bladder tumor, the “Fluorescence signal of VivoTag 680XL labeled complex, retention” value was “retention”.
